# Data published in patent publication US20250207107A1, “LUCIFERASE MUTANT AND USE THEREOF” (DGI TECH (QING DAO) CO., LIMITED, priority 2022, published 2025).
# Columns and labels:
# Type in all cases: biochemical
# [1] = Substrate specificity assay of purified luciferase, ZS2/F-CTZ luminescence ratio; settings: for ZS2 luminescence intensity to F-CTZ luminescence intensity: purified prokaryotically expressed luciferase 1 μg/ml, substrates 100 μM, microplate reader
# Description: (§1) Protein concentration was accurately determined using the BCA quantification kit (Thermo Scientific™ Pierce™ BCA Protein Assay Kit), and luciferase was diluted to 1 μg/ml with diluent (50 mM Tris-HCl pH 8.0, 100 mM NaCl, 0.1% (v/v) Tween-20) and 10 μL was added to black 96-well plates, which was then added with 90 μL of the respective substrates, coelenterazine (purchased from Baiaolaibo), fluorinated coelenterazine, and coelenterazine derivatives ZS2 and ZS26 that were diluted to 100 μM with the same solution, and the luminescence intensity was read from the luminescence module with a microplate reader. The substrate specificity of the mutants was compared with the activity ratio of ZS2/F-CTZ and ZS26/F-CTZ. Table 10 below lists results of the mutation sites and substrate specificity of ZS26/F-CTZ and ZS2/F-CTZ of the dominant mutant of Pleuromamma xiphia luciferase.
# (§2) pEE12.4 Pxluc WT and mutant pEE12.4 Pxluc P26-95, as well as the coupled products SA-Pxluc WT and SA-Pxluc P26-95 were subjected to the activity assay according to the method described in Example 5.
# [2] = Substrate specificity assay of purified luciferase, ZS26/F-CTZ luminescence ratio; settings: for ZS26 luminescence intensity to F-CTZ luminescence intensity: purified prokaryotically expressed luciferase 1 μg/ml, substrates 100 μM, microplate reader
# Description: as §1, §2
# [3] = Protein activity assay for Pleuromamma xiphia luciferase expressed in prokaryotic cells; settings: protein expressed in OrigamiB (DE3) or BL21 (DE3), Gluc as control, FIG. 6
# Description: The concentration of protein was accurately determined using a BCA quantification kit (Thermo Scientific™ Pierce™ BCA Protein Assay Kit), and the above purified luciferase was diluted with diluent (50 mM Tris-HCl pH 8.0, 100 mM NaCl, 0.1% (v/v) Tween-20). The protein expressed by the pET28a-Pxluc WT plasmid was diluted to 12 μg/ml, and the proteins expressed by the pCold WT Pxluc plasmid and pCold WT-NS Pxluc plasmid were diluted to […]. 10 μL of each protein was added to a black 96-well plate, which was then added with 90 µL of the respective substrates, coelenterazine (purchased from Baiaolaibo), fluorinated coelenterazine, and coelenterazine derivatives ZS2, ZS26 (the structural formula of each compound is shown in FIG. 5) that were diluted to 100 µM with the same solution, and the luminescence intensity was read from the luminescence module with a microplate reader. Gluc expressed in OrigamiB (DE3) competent cells was known to have good luminescence activity, and thus it was used as a control group. […] Therefore, the luminescence activity of Pleuromamma xiphia luciferase without a signal peptide to coelenterazine is similar to that of Gluc to coelenterazine. […] Subsequent experiments were performed with Pleuromamma xiphia luciferase without a signal peptide.
# [4] = Activity assay of Pxluc expressed in eukaryotic cells; settings: expressed in eukaryotic cells (Expi-CHO); FIG. 12
# Description: as §1, §2
Molecule,ZS2 luminescence intensity to F-CTZ luminescence intensity [1],"substrate specificity for ZS2/F-CTZ ([1]; text summary of Table 10, FIG. 8)",ZS26 luminescence intensity to F-CTZ luminescence intensity [2],"substrate specificity for ZS26/F-CTZ ([2]; text summary of Table 10, FIG. 7)",luminescence value / luminescence activity to coelenterazine ([3]; listed as Pleuromamma xiphia luciferase without a signal peptide),luminescence value / luminescence activity to coelenterazine ([3]; listed as pCold WT NS Pxluc),"activity of catalyzing the substrates ZS2, ZS26 [4]"
"pCold WT-NS Pxluc: wild type Pleuromamma xiphia luciferase without a signal peptide, SEQ ID NO: 4, prokaryotic expression (protein, WT-NS Pxluc) QPTENKQESHIVDSDLDGDRGRKLPGKKLPIEVLKIMEANARRAGCTRGCLICLSKIKCTAKMKRYIPGRCHTYEGDKSIGQGGIGGPIVDIPEIIGFKNMEPMDQFIAQVDLCADCTTGCLKGLANVRCNDLLKKWLPDRCAGFADKIQNEVDSIKGMAGDR",3.56,about 3.56 fold,1.77,about 1.77 fold,higher activity,highest luminescence value,–
"Pxluc WT: wild-type luciferase for eukaryotic expression, with signal peptide, 6×His tag and Avitag (SEQ ID NO: 28) (protein, misc_feature 1..585 pEE12.4) MYIKVWFGLACLSLVLAHHHHHHGSQPTENKQESHIVDSDLDGDRGRKLPGKKLPIEVLKIMEANARRAGCTRGCLICLSKIKCTAKMKRYIPGRCHTYEGDKSIGQGGIGGPIVDIPEIIGFKNMEPMDQFIAQVDLCADCTTGCLKGLANVRCNDLLKKWLPDRCAGFADKIQNEVDSIKGMAGDRGSGLNDI",–,–,–,–,–,–,had the activity of catalyzing the substrates
"P25-1: Pxluc mutant without signal peptide, G98L, Q99R (SEQ ID NO: 2 numbering) (protein, signal peptide removed; (WT Pxluc)) MYIKVWFGLACLSLVLAQPTENKQESHIVDSDLDGDRGRKLPGKKLPIEVLKIMEANARRAGCTRGCLICLSKIKCTAKMKRYIPGRCHTYEGDKSILRGGIGGPIVDIPEIIGFKNMEPMDQFIAQVDLCADCTTGCLKGLANVRCNDLLKKWLPDRCAGFADKIQNEVDSIKGMAGDR",21.808,–,23.647,–,–,–,–
